Measurements published in patent US20050191293A1 (Bristol-Myers Squibb, published 2005).
Values joined by “and” are separate entries in the source; they are usually repeats but may differ in a detail not shown here. Equal entries are not always repeated.

T1: rhesus monkey IP-10 (rhesus monkey, UniProt Q8MIZ1 22-98)
T1 construct: Made by recombinant expression and purified by standard methods; also called Rhesus IP-10; rrmIP-10
T1 sequence: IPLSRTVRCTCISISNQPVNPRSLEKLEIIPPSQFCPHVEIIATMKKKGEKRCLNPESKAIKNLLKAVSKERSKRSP

T2: human MIG (monokine induced by gamma interferon) (human, UniProt Q07325 23-125)
T2 construct: Bought (PeproTech 300-26; R&D Systems for the migration assay)
T2 sequence: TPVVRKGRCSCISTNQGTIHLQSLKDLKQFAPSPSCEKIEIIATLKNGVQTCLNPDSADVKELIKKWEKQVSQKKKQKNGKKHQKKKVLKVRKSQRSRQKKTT

T3: human ITAC (interferon-inducible T cell alpha chemoattractant) (human, UniProt O14625 22-94)
T3 sequence: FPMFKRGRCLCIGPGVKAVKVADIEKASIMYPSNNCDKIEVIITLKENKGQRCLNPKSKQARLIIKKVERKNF

T4: mouse IP-10 (mouse, UniProt P17515 22-98)
T4 construct: Bought (PeproTech 250-16)
T4 sequence: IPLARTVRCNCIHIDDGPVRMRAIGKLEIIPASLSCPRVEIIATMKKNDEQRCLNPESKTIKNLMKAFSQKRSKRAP

B1: 2G1 human monoclonal antibody (antibody, V domains shown)
VH: QVQLVESGGGVVQPGRSLRLSCAASGFTFSNCGMHWVRQAPGKGLEWVALIGYDGINEYYADSVKGRFTISRDNSKNTLYLQMNSLRAEDTAVFYCARDWPEGYYNGMDVWGQGTTVTVSS
VL: not shown
notes: Human IgG with kappa light chain from a hybridoma of transgenic mice
B2: 6B10 human monoclonal antibody (antibody, V domains shown)
VH: QVQLVESGGGVVQPGRSLRLSCAASGFTFSNSAMHWVRQAPGKGLEWVALIPFDGYNKYYADSVKGRFTISRDNSKNTLYLQMNSLRAEDTAVYYCAREGGYTGYDGGFDYWGQGILVTVSS
VL: EIVLTQSPATLSLSPGERATLSCRASQSVSSYLAWYQQKPGQAPRLLIYDASNRATGIPARFSGSGSGTDFTLTISSLEPEDFAVYYCQQRSNWPPYTFGQGTKLEIK
notes: as for B1
B3: 6A5 human monoclonal antibody (antibody, V domains shown)
VH: QMQLVESGGGVVQPGRSLRLSCTASGFTFSNNGMHWVRQAPGKGLEWVAVIWFDGMNKFYVDSVKGRFTISRDNSKNTLYLEMNSLRAEDTAIYYCAREGDGSGIYYYYGMDVWGQGTTVTVSS
VL: not shown
notes: Human IgG with kappa light chain from a hybridoma; also called 6A5 Batch 2; 6A5 (Batch 2)

Legend:
[1] = target: T5, human IP-10 (interferon gamma inducible protein 10) (human, UniProt P02778 22-98); assay: ELISA, plate coated with 1 ug/ml antigen
T5 construct: Native IP-10 from THP-1 supernatant and from MS patient CSF in the migration assays is also put under this molecule; also called CXCL10; rhIP-10
Description: (§1) The plates were washed with PBS/Tween and then incubated with a goat-anti-human IgG Fc polyclonal antibody conjugated with horseradish peroxidase (HRP) for 1 hour at room temperature. After washing, the plates were developed with ABTS substrate (Sigma, A-1888, 0.22 mg/ml) and analyzed by spectrophotometer at OD 415-495.

[2] = target: T1, rhesus monkey IP-10; assay: ELISA, plate coated with 1 ug/ml antigen
Description: as §1

[3] = target: T2, human MIG (monokine induced by gamma …); assay: ELISA, plate coated with 1 ug/ml antigen
Description: as §1

[4] = target: T5, human IP-10 (interferon gamma inducible …); assay: cell-based or functional assay
[5] = target: T5, human IP-10 (interferon gamma inducible …); assay: SPR (Biacore), extension of dissociation curve, 25 C
Description: (§2) Binding was measured by flowing the antibody in HBS EP buffer (provided by Biacore AB) at concentrations from 33-267 nM at a flow rate of 40 μl/min. The antigen-antibody association kinetics was followed for 5 minutes and the dissociation kinetics was followed for 8 minutes. The association and dissociation curves were fit to a 1:1 Langmuir binding model using BIAevaluation software (Biacore AB). Data corresponding to the initial few dozen seconds for association and dissociation phases alone were considered for curve fitting to minimize the effect of avidity. The experiments were performed at both 25° C. and 37° C.
(§3) The values were determined by extension of the dissociation curves to get to the time required for the 50% reduction of the Y-axis of the dissociation sensogram.

[6] = target: T5, human IP-10 (interferon gamma inducible …); assay: SPR (Biacore), human IP-10 on CM5 chip, 25 C
Description: as §2

[7] = target: T5, human IP-10 (interferon gamma inducible …); assay: SPR (Biacore), human IP-10 on CM5 chip, 37 C
Description: as §2

[8] = target: T1, rhesus monkey IP-10; assay: SPR (Biacore), antigen on CM5 chip, antibody 133 nM, 25 C
Description: (§4) The flow was then stopped and dissociation was monitored for 5 minutes. The association and dissociation curves were fit to a Langmuir binding model using BIAevaluation software (Biacore AB).

[9] = target: T2, human MIG (monokine induced by gamma …); assay: as above
Description: as §4

[10] = target: T3, human ITAC (interferon-inducible T cell …); assay: SPR (Biacore), antigen on CM5 chip, 25 C
Description: as §4

[11] = target: T4, mouse IP-10; assay: SPR (Biacore), antigen on CM5 chip, 25 C
Description: as §4

[12] = target: T5, human IP-10 (interferon gamma inducible …); assay: inhibition of 0.100 nM 125I-IP-10 binding to CXCR3-expressing 300.19 cells
Description: The cells were grown in RPMI media containing 10% FCS and G418 selection. Prior to use, the cells were washed twice with Hank's Balanced Salt Solution (HBSS) at 4° C. and adjusted to 4×10⁷ cells/ml. Glass fiber plates (Millipore MultiScreen®, Cat. #MAFBNOB50) were blocked with 200 μl of a 0.1% polyethyleneimine solution one day prior to the experiment. On the day of the study, the blocking buffer was aspirated by using a Millipore manifold. The plates were washed three times with 200 μl of binding buffer (50 mM HEPES, pH 7.2, 1 mM CaCl₂, 5 mM MgCl₂, 0.5% BSA). […] The plates were incubated on a plate shaker for 60 minutes at room temperature and washed three times with wash buffer (10 mM HEPES, pH 7.2, 0.5 M NaCl, 0.5% BSA) at a volume of 200 μl per wash. The plates were dried, 25 μl of scintillant was added and the plates were counted on a Wallac Microbeta Counter. Data were analyzed using Prism software and a KD was calculated.
Competition assays were run in a similar manner to the experiment described above. […] Lastly, 25 μl of cells at a density of 1×10⁶ cells per well were added and the plates were incubated on a plate shaker for 60 minutes at room temperature, washed and counted as described above. EC₅₀ values were calculated using Prism software. Kᵢ values (in nM) were determined using the formula: […]

[13] = target: T5, human IP-10 (interferon gamma inducible …); assay: SPR (Biacore), extension of dissociation curve, 37 C
Description: as §2, §3

[14] = target: T3, human ITAC (interferon-inducible T cell …); assay: SPR (Biacore), antigen on CM5 chip, antibody 133 nM, 25 C
Description: as §4

[15] = target: T5, human IP-10 (interferon gamma inducible …); assay: cell-based or functional assay; remark: listed apart in the source
[16] = target: T1, rhesus monkey IP-10; assay: cell-based or functional assay
[17] = target: T3, human ITAC (interferon-inducible T cell …); assay: SPR (Biacore), antigen on CM5 chip, 25 C; sample 6A5
Description: as §4

[18] = target: T4, mouse IP-10; assay: as above
Description: as §4

[19] = target: T2, human MIG (monokine induced by gamma …); assay: SPR (Biacore), antigen on CM5 chip, 25 C; sample 6A5 Batch 2
Description: as §4

[20] = target: T5, human IP-10 (interferon gamma inducible …); assay: cell-based or functional assay; remark: listed apart in the source

T5 sequence (P02778 other isoform, or with tags, fused parts or gaps limits assumed): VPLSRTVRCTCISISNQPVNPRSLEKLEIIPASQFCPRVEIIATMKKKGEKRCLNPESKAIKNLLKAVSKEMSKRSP

Row | Binder | EC50 [1] | EC50 [2] | EC50 [3] | IC50 (nM) for 300.19 Cells: inhibition of IP-10-induced calcium flux in 300.19 cells transfected to express CXCR3 [4] | IC50 (nM) for HPBL: inhibition of IP-10-induced calcium flux in anti-CD3 activated human PBLs that express CXCR3 [4] | Half-life (dissociation of half of the antibody-antigen complex) [5] | Kd [6] | koff [6] | kon [6] | Kd [7] | koff [7] | kon [7] | Kd [8] | Kd [9] | Ki [12] | Half-life (dissociation of half of the antibody-antigen complex) [13] | also measured
1 | B1 | 0.03 µg/mL | 0.03 µg/mL | 0.045 µg/mL | 0.5 nM | 2.98 nM | 25.7 h | ~198 pM | 7.5e-06 s⁻¹ | 37800 M⁻¹ s⁻¹ | 340 pM | 4.97e-05 s⁻¹ | 148000 M⁻¹ s⁻¹ | 260 pM | 70100 pM | 90 pM | 3.87 h | binding result [10]: no binding (tested: 133 nM); binding result [11]: no binding (tested: 133 nM)
2 | B2 | 0.03 µg/mL | 0.045 µg/mL | 0.02 µg/mL | 0.5 nM | 4.4 nM | 1.12 h | 1780 pM | 0.000172 s⁻¹ | 95000 M⁻¹ s⁻¹ | 2540 pM | 0.000504 s⁻¹ | 199000 M⁻¹ s⁻¹ | 2010 pM | 15400 pM | 300 pM | 0.38 h | Kd [14]: 51500 pM; THP-1 IP-10 IC50: inhibition of migration of CXCR3-expressing 300.19 cells induced by native IP-10 in THP-1 supernatant, MIG blocked by anti-MIG [15]: 0.193 µg/mL; rhIP-10 IC50: inhibition of migration of CXCR3-expressing 300.19 cells induced by 100 ng/ml recombinant human IP-10 [15]: 1.1 µg/mL; rrmIP-10 IC50: inhibition of migration of CXCR3-expressing 300.19 cells induced by 100 ng/ml recombinant rhesus macaque IP-10 [16]: 0.149 µg/mL
3 | B3 | 0.035 µg/mL and 0.062 µg/mL | 0.125 µg/mL and 0.09 µg/mL | – | – | – | 5.29 h and 6.21 h | 1200 pM and 960 pM | 3.64e-05 s⁻¹ and 3.1e-05 s⁻¹ | 31100 M⁻¹ s⁻¹ and 32000 M⁻¹ s⁻¹ | 700 pM and 740 pM | 7.15e-05 s⁻¹ and 6.26e-05 s⁻¹ | 102000 M⁻¹ s⁻¹ and 84100 M⁻¹ s⁻¹ | 1060 pM and 1230 pM | – | 670 pM and 350 pM | 2.69 h and 3.87 h | binding result [17]: no binding (tested: 133 nM); binding result [18]: no binding (tested: 133 nM); IC50 (nM) for 300.19 Cells: inhibition of IP-10-induced calcium flux in 300.19 cells transfected to express CXCR3 (sample 6A5) [4]: 0.61 nM; IC50 (nM) for 300.19 Cells: inhibition of IP-10-induced calcium flux in 300.19 cells transfected to express CXCR3 (sample 6A5 Batch 2) [4]: 0.42 nM; IC50 (nM) for HPBL: inhibition of IP-10-induced calcium flux in anti-CD3 activated human PBLs that express CXCR3 (sample 6A5) [4]: 2.85 nM; IC50 (nM) for HPBL: inhibition of IP-10-induced calcium flux in anti-CD3 activated human PBLs that express CXCR3 (sample 6A5 Batch 2) [4]: 2.18 nM; binding result [19]: no binding (tested: 133 nM); Expt. 1 IC50: inhibition of MS-CSF induced migration of CXCR3-expressing 300.19 cells, MIG neutralized by anti-MIG (sample 6A5 (Batch 2)) [20]: 0.1 µg/mL; Expt. 2 IC50: inhibition of MS-CSF induced migration of CXCR3-expressing 300.19 cells, MIG neutralized by anti-MIG (sample 6A5 (Batch 2)) [20]: 0.236 µg/mL; THP-1 IP-10 IC50: inhibition of migration of CXCR3-expressing 300.19 cells induced by native IP-10 in THP-1 supernatant, MIG blocked by anti-MIG (sample 6A5 (Batch 2)) [15]: 0.132 µg/mL; rhIP-10 IC50: inhibition of migration of CXCR3-expressing 300.19 cells induced by 100 ng/ml recombinant human IP-10 (sample 6A5 (Batch 2)) [15]: 0.156 µg/mL; rrmIP-10 IC50: inhibition of migration of CXCR3-expressing 300.19 cells induced by 100 ng/ml recombinant rhesus macaque IP-10 (sample 6A5 (Batch 2)) [16]: 0.119 µg/mL
